Test results taken from US20240101645A1 (HENRY M JACKSON FOUNDATION FOR THE ADVANCEMENT OF MILITARY …, published 2024).

T1: HCoV-229E spike antigens (bead panel) (HCoV-229E, UniProt P15423 16-1115)
T1 sequence: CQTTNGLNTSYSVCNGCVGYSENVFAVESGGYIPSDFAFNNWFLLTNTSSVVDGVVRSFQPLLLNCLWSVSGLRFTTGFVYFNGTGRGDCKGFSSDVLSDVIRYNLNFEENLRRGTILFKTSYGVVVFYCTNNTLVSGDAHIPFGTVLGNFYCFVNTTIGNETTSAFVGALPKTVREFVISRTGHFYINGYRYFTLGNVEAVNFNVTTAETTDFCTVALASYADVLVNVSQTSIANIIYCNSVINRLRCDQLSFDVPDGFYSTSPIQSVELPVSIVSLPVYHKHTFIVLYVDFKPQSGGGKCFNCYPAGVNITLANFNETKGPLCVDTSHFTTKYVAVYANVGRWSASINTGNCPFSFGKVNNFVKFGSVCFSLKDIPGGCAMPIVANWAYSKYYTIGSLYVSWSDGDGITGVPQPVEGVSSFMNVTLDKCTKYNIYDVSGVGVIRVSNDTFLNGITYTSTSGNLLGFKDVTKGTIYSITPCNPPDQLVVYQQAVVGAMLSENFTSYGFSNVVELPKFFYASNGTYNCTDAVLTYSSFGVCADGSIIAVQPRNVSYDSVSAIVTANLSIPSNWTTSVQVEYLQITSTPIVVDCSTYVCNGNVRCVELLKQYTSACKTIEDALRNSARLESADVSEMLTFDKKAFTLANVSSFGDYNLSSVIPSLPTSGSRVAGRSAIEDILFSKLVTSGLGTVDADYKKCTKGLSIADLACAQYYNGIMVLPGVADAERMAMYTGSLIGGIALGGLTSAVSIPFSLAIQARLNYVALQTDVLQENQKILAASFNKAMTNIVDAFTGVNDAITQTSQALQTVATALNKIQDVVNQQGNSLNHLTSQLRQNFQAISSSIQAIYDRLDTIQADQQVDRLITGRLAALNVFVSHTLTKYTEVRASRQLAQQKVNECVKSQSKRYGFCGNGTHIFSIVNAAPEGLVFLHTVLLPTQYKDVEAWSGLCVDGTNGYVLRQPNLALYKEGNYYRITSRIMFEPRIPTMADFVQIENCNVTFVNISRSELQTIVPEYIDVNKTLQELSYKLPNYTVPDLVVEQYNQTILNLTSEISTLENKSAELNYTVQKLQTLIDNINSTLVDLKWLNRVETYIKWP

T2: MERS-CoV spike antigens (bead panel) (MERS-CoV, UniProt K9N5Q8 18-1296)
T2 sequence: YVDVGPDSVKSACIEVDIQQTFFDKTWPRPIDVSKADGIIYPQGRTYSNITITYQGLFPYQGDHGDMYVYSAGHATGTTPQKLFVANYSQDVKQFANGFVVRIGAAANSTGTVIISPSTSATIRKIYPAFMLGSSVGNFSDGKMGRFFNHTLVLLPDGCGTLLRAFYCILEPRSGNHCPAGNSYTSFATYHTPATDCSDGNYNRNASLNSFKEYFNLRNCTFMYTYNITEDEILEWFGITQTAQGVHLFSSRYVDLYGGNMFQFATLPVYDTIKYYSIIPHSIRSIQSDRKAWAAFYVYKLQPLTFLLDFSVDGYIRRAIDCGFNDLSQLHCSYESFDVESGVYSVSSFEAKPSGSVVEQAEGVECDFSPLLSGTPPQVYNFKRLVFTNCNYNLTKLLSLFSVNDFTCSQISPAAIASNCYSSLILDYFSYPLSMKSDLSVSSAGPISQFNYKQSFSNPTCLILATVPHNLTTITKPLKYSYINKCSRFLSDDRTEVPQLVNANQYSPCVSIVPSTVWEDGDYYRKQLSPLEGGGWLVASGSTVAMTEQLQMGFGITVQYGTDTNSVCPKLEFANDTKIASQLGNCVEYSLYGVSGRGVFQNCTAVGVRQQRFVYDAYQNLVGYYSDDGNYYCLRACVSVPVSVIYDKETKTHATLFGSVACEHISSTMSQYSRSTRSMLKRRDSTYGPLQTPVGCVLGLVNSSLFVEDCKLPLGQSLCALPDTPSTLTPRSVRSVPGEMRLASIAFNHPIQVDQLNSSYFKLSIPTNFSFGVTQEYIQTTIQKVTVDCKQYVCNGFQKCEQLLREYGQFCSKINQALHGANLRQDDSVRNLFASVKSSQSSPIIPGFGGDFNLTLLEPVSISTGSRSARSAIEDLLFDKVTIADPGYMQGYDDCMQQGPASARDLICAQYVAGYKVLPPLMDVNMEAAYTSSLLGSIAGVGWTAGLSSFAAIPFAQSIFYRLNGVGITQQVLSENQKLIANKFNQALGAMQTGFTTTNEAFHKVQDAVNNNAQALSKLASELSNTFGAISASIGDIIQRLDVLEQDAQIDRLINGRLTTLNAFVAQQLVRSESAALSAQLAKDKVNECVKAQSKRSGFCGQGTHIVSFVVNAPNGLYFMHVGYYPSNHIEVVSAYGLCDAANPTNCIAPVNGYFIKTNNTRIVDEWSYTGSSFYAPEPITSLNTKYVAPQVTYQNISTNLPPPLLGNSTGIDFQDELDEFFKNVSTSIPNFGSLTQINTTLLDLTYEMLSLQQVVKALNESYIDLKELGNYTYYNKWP

T3: HCoV-HKU1 spike antigens (bead panel) (HCoV-HKU1, UniProt Q5MQD0 13-1300)
T3 sequence: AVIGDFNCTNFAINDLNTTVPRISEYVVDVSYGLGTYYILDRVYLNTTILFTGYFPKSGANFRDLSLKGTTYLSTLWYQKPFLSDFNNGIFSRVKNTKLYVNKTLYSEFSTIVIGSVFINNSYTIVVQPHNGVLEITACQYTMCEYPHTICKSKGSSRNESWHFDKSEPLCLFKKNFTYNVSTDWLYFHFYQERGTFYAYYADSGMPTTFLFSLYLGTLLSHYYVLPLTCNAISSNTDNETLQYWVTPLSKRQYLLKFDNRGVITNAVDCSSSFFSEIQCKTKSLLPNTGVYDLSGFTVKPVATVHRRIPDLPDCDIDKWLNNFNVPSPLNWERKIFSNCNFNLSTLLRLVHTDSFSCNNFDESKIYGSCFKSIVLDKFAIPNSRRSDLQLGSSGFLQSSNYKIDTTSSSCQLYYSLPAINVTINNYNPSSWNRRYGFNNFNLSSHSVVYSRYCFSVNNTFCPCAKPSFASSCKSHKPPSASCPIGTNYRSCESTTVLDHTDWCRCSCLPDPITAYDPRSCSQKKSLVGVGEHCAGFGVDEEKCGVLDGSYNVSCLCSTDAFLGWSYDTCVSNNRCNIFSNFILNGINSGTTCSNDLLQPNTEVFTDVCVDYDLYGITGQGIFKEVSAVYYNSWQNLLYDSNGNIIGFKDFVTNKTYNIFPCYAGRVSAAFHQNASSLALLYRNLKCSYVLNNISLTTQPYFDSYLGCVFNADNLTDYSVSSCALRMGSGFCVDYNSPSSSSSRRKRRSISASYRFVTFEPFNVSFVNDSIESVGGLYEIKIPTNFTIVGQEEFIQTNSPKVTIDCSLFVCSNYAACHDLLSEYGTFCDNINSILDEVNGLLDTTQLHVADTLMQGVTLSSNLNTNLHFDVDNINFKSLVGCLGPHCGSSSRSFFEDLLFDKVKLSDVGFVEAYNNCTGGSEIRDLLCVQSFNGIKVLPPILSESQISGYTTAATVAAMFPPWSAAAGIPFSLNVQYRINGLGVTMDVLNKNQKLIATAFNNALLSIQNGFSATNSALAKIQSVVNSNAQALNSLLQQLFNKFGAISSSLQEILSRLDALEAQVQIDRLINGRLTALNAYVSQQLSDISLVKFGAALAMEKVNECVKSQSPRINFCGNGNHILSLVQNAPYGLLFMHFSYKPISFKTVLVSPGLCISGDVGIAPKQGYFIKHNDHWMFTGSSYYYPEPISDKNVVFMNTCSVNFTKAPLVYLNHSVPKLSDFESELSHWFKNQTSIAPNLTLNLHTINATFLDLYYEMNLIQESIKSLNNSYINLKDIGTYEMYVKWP


Legend:
[1] = target: SARS-CoV-1 spike antigens (bead panel) (SARS-CoV-1, UniProt P59594 14-1195); assay: multiplex bead assay
[2] = target: SARS-CoV-2 S on pseudovirions (Wuhan Hu-1 / IL1/2020, last 18 amino acids removed) (SARS-CoV-2, UniProt P0DTC2 14-1273); assay: cell-based or functional assay
[3] = target: T1, HCoV-229E spike antigens (bead panel); assay: multiplex bead assay
[4] = target: T2, MERS-CoV spike antigens (bead panel); assay: multiplex bead assay
[5] = target: T3, HCoV-HKU1 spike antigens (bead panel); assay: multiplex bead assay

| Binder | binding result [1] | Mean IC50, pSV neutralization [2] | Mean IC80, pSV neutralization [2] | binding result [3] | binding result [4] | binding result [5] |
| --- | --- | --- | --- | --- | --- | --- |
| COV_1063 (antibody, V domains shown, human IgG1) VH: EEKLVESGGDLVQPGGSLRISCEVSGFSLSKYWMNWVRQAPGKGLQWVANIEEDGSERNYADSVKGRFTISRDNARNSLYLQMNSLRVEDTAVYLCTAGHYAGPWGWGQGTLVTVSS VL: DIQMTQSPSSLSASVGDRVTVTCRASQDIGHYLAWYQQKPGKTPNLLIYDAFNLESGVPPRFGGSGSGTDFTLTISSLQPEDAATYYCQKYDSVPWTFGQGTKVEIKR | no binding | ≥ 25 µg/ml | ≥ 25 µg/ml |  |  |  |
| COV_2055 (antibody, V domains shown, human IgG1) VH: EVQLVESGGGVVQPGRSLRLSCAASGFTLSSYGMHWVRQAPGKGLEWVAVISYEGSNKHYADSVKGRFTISRDNSKNTLYLQMNSLRAEDTAVYYCAKGSTNYFDHWGQGTLVTVSS VL: not shown |  |  |  | no binding | no binding |  |
| COV_1032 (antibody, V domains shown, human IgG1) VH: QVHLQESGPGLVKPSETLSLTCTVSGGSISSYYWSWIRQPPGKGLEWIGYIYDSGSTNYNPSLKSRVTISVDTSKNQFSLKLSSVTAADTAVYYCARSVRGVTIDYWGQGTLVTVSS VL: DIQMTQSPSSLSASVGDRVTITCRASQSISNSISSYLNWYQKKPGKAPKLLIYAASSLQSGVPSRFSGSGSGTDFTLTISSLQPEDFATYYCQQSYSTPTTFGQGTKVEIKR |  | 2.5 µg/ml | ≥ 25 µg/ml | no binding | no binding |  |
| COV_1131 (antibody, V domains shown, human IgG1) VH: QVQLQESGPGLVKPSETLSLTCSVSGGSISSYYWSWIRQPPGKGLEWIGYISYSGSTNYNPSLKSRVTISVDTSKNQFSLKLSSVTAADTAVYYCARLGFGGIYPSLYDAFDIWGQGTMVTVSS VL: DIQMTQSPSSLSASVGDRVTITCRASQTISSYLNWYQQKPGKAPNLLIYDASSLQRGVPSRFSGSGSGTDFTLTISSLQPEDFATYYCQQSYSTPRTFGQGTKVEIKR |  | ≥ 25 µg/ml | ≥ 25 µg/ml | no binding | no binding | no binding |
| COV_1116 (antibody, V domains shown, human IgG1) VH: EVQLVESGGGLVKPGGSLRLSCAASGFTFSSYSMNWVRQAPGKGLEWVSSISSSNAYIYSADSVKGRFTISRDNAKNSLYLQMNSLRADDTAVYYCARGGRGLSSSPGRLDYYYGLDVWGQGTTVTVSS VL: not shown |  | 6.99 µg/ml | ≥ 25 µg/ml | no binding | no binding | no binding |
| COV_2064 (antibody, V domains shown, human IgG1) VH: EVQLVESGGGLVQPGGSLRLSCTASGFTFNNNWMHWVRQVPGKGLVWVSRINTDESSTSYADSVKGRFIISRDNAKNTLYLQMNSLRVEDTAVYYCARSTAQYDIWTGYYYYMDVWGKGTTVTVSS VL: DIQMTQSPSTLSASVGDRVTISCRASQSISTWLAWYQQKPGKAPNLLIYGASNLGSGVPSRFSGGGSGTEFTLTISSLQSDDFATYYCQRYNSFPYTFGQGTKLEIKR |  | ≥ 25 µg/ml | ≥ 25 µg/ml | no binding | no binding | no binding |
